From patent US20230272049A1 (published 2023)

T1: HPV16 E7 peptide on HLA-A*02:01 (human)
T1 peptide: YMLDLQPET

B1: E7-11-28 (TCR, V domains shown)
Valpha: GQQVMQIPQYQHVQEGEDFTTYCNSSTTLSNIQWYKQRPGGHPVFLIQLVKSGEVKKQKRLTFQFGEAKKNSSLHITATQTTDVGTYFCAGIGSSNTGKLIFGQGTTLQVKP
Vbeta: EPEVTQTPSHQVTQMGQEVILRCVPISNHLYFYWYRQILGQKVEFLVSFYNNEISEKSEIFDDQFSVERPDGSNFTLKIRSTKLEDSAMYFCAITGRVSYEQYFGPGTRLTVT
B2: E7-11-194 (TCR, V domains shown)
Valpha: GQQVMQIPQYQHVQEGEDFTTYCNSSTTLSNIQWYKQRPGGHPVFLIQLVKSGEVKKQKRLTFQFGEAKKNSSLHITATQTTDVGTYFCAGLGSSNTGKLIFGQGTTLQVKP
Vbeta: EPEVTQTPSHQVTQMGQEVILRCVPISNHLYFYWYRQILGQKVEFLVSFYNNEISEKSEIFDDQFSVERPDGSNFTLKIRSTKLEDSAMYFCATTGRASYEQYFGPGTRLTVT
B3: E7-11-176 (TCR, V domains shown)
Valpha: DQQVKQNSPSLSVQEGRISILNCDYTNSMFDYFLWYKKYPAEGPTFLISISSIKDKNEDGRFTVFLNKSAKHLSLHIVPSQPGDSAVYFCAAKNSNSGYALNFGKGTSLLVTP
Vbeta: not shown
B4: E7-11-455 (TCR, V domains shown)
Valpha: QKEVEQDPGPLSVPEGAIVSLNCTYSNSAFQYFMWYRQYSRKGPELLMYTYSSGNKEDGRFTAQVDKSSKYISLFIRDSQPSDSATYLCAMAGSGNTGKLIFGQGTTLQVKP
Vbeta: DTGVSQDPRHKITKRGQNVTFRCDPISEHNRLYWYRQTLGQGPEFLTYFQNEAQLEKSRLLSDRFSAERPKGSFSTLEIQRTEQGDSAMYLCASSSSTKNIQYFGAGTRLSVL

Biological target: T1, HPV16 E7 peptide on HLA-A*02:01
Experiment: multimer staining

Binding result, recognises:
B1
B2
B3
B4
